{"source": "paper doi:10.1101/2023.05.08.539930", "data": [{"biological_target": "MSH2;MSH3 (Homo sapiens;Homo sapiens, UniProt P43246;P20585 1-934;1-1137, |)", "assay": "FRET", "values": [{"binder": "70 bp (CAG)1 FRET DNA (dsDNA, 5' digoxigenin on both strands, anti-digoxigenin Fab end-blocked) DNA 1: CACACGTTCCGAGATATCCTAGCAAGTGATCAGCGTCTATGTAGCTCAAGAGTTCGACTCAGCCTACACCGAG DNA 2: CTCGGTGTAGGCTGAGTCGAACTCTTGAGCTACATAGACGATCACTTGCTAGGATATCTCGGAACGTGTG", "binding result": "binds"}, {"binder": "70 bp (CAG)4 FRET DNA (dsDNA, 5' digoxigenin on both strands, anti-digoxigenin Fab end-blocked) DNA 1: CACACGTTCCGAGATATCCTAGCAAGTGATCAGCAGCAGCAGCGTCTATGTAGCTCAAGAGTTCGACTCAGCCTACACCGAG DNA 2: CTCGGTGTAGGCTGAGTCGAACTCTTGAGCTACATAGACGATCACTTGCTAGGATATCTCGGAACGTGTG", "binding result": "binds"}, {"binder": "70 bp (CAG)2 FRET DNA (dsDNA, 5' digoxigenin on both strands, anti-digoxigenin Fab end-blocked) DNA 1: CACACGTTCCGAGATATCCTAGCAAGTGATCAGCAGCGTCTATGTAGCTCAAGAGTTCGACTCAGCCTACACCGAG DNA 2: CTCGGTGTAGGCTGAGTCGAACTCTTGAGCTACATAGACGATCACTTGCTAGGATATCTCGGAACGTGTG", "binding result": "binds"}]}]}
